In patent US20240084019A1 (OSE IMMUNOTHERAPEUTICS, published 2024):
Changes are numbered by the printed parent chain.

T1: Biot-C7 peptide: biotinylated NH2-PYHTLNLLELHHTAMPGSVFSLGLPLATALAIA-COOH (human, biotinylated (position not given))
T1 construct: also called C7biot; biotinylated antigen-specific peptide
T1 peptide: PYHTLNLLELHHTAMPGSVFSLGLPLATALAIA

B1: HALA humanized anti-CMKLR1 antibody (VHvAv3-23*04 + VLvAv1-13*01) (antibody, human IgG1, V domains shown)
VH: EVQLVESGGGLVQPGGSLRLSCAASGFTFSSYGMSWVRQAPGKGLELVATINRYGGSTYYPDSVKGRFTISRDNSKNTLYLQMNSLRAEDTAVYYCPRLIYYGNEGDSWGQGTLVTVSS
VL: AIQLTQSPSSLSASVGDRVTITCSASSSVSFMHWYQQKPGKAPKRWIYDTTKLTSGVPSRFSGSGSGTDYTLTISSLQPEDFATYYCQQWNSKPPLTFGGGTKVEIK
notes: Variable domains only; also called germline antibody HALA; IGHV3-23*04 + IGKV1-13*02
B2: anti-CMKLR1 antibody 2G1 (parental chimeric antibody) (antibody, human IgG1, V domains shown)
VH: EVQLVASGGGLVQPGGSLKLSCAASGFTFSSYGMSWVRQTPDRRLELVATINRYGGSTYYPDSVKGRFTISRDNAKNTLYLQMSSLKSEDTAMYYCPRLIYYGNEGDSWGQGTTLTVSS
VL: QIVLTQSPAIMSASPGEKVTMTCSASSSVSFMHWYQQKSGTSPKRWIYDTTKLTSGVPARFSGSGSGTFYSLTISSMEAEDAATYYCQQWNSKPPLTFGPGTKLELKR
notes: also called 2G1 wt; 2G1 WT
B3: HDLD humanized anti-CMKLR1 antibody (antibody, human IgG1, V domains shown)
VH: B1 VH with G33A, P61A, D62A, R98K
VL: B1 VL with S24R, S27Q, M32L, T50A, Y70F, N91Q
notes: Variable domains only; fused to constant fragment of human immunoglobulin (human IgG1, kappa)
B4: HEF-LEF humanized anti-CMKLR1 antibody (antibody, V domains shown)
VH: B1 VH with G33A, A49S, N52S, R53G, Y54S, P61A, D62A, R98K
VL: B1 VL with S24R, S27Q, M32L, W46L, T50A, T51S, T54E, Y70F, N91Q
notes: fused to constant fragment of human immunoglobulin
B5: HD-LDT52S humanized anti-CMKLR1 antibody (antibody, V domains shown)
VH: B1 VH with G33A, P61A, D62A, R98K
VL: B1 VL with S24R, S27Q, M32L, T50A, T51S, Y70F, N91Q
notes: as for B4
B6: HEF-LDT52S humanized anti-CMKLR1 antibody (antibody, V domains shown)
VH: B1 VH with G33A, A49S, N52S, R53G, Y54S, P61A, D62A, R98K
VL: B1 VL with S24R, S27Q, M32L, T50A, T51S, Y70F, N91Q
notes: as for B4
B7: HCLD humanized anti-CMKLR1 antibody (antibody, human IgG1, V domains shown)
VH: B1 VH with P61A, D62A, R98K
VL: B1 VL with S24R, S27Q, M32L, T50A, Y70F, N91Q
notes: as for B3
B8: HDLC humanized anti-CMKLR1 antibody (antibody, human IgG1, V domains shown)
VH: B1 VH with G33A, P61A, D62A, R98K
VL: B1 VL with S24R, S27Q, M32L, T50A, Y70F
notes: as for B3
B9: HCLC humanized anti-CMKLR1 antibody (antibody, human IgG1, V domains shown)
VH: B1 VH with P61A, D62A, R98K
VL: B1 VL with S24R, S27Q, M32L, T50A, Y70F
notes: as for B3

Target: T1, Biot-C7 peptide: biotinylated …
Assay: activity ELISA on Biot-C7 peptide; column head printed ED50 (ng/ml); second batch, no number

How did the EC50 turn out when B1 was run?
Its EC50 is 0.195 µg/mL.

Target: T1, Biot-C7 peptide: biotinylated …
Assay: activity ELISA on Biot-C7 peptide; column head printed ED50 (ng/ml)

How did the EC50 turn out when B2 was run?
Its EC50 is 0.222 µg/mL.

For B3, which EC50 is on record?
The EC50 was 0.193 µg/mL.

For B4, which EC50 is on record?
The EC50 was 0.183 µg/mL.

With B5 as the binder, how does the EC50 read?
Its EC50 is 0.237 µg/mL.

With B6 as the binder, how does the EC50 read?
Its EC50 is 0.126 µg/mL.

Target: T1, Biot-C7 peptide: biotinylated …
Assay: activity ELISA on biotinylated C7 peptide; column head printed ED50 (ng/ml)

For B2, which EC50 is on record?
Its EC50 is 0.269 µg/mL.

Which EC50 does the source give for B3 here?
The EC50 was 0.195 µg/mL.

B7 was tested. Which EC50 did it give?
The EC50 was 0.333 µg/mL.

B8 was tested. Which EC50 did it give?
Its EC50 is 0.197 µg/mL.

How did the EC50 turn out when B9 was run?
The EC50 was 0.167 µg/mL.

For B1, which EC50 is on record?
Its EC50 is 0.557 µg/mL.

Target: T1, Biot-C7 peptide: biotinylated …
Assay: activity ELISA on Biot-C7 peptide; column head printed ED50 (ng/ml); batch #170919

With B1 as the binder, how does the EC50 read?
Its EC50 is 0.253 µg/mL.
